Laboratory results taken from paper PMC8640019 (Nature Communications, 2021).
Several values for one entry are separate records, joined by “and”; a condition that tells them apart may be missing. Identical values can stand only once. Square brackets hold non-standard residues; d marks the D form. Ends that are not written are not given here. pY = N[C@@H](Cc1ccc(OP(=O)(O)O)cc1)C(=O)O

Key:
[1] = target: T1, SOCS2-Elo B/C + F3 (human, UniProt O14508 32-198; Q15370 1-118; Q15369 17-112); assay: ITC
T1 sequence (Q15370 whole entry, chain 2 of 2): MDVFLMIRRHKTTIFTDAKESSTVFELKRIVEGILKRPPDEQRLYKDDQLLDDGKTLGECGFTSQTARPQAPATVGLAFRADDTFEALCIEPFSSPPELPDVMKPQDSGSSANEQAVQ
T1 sequence (Q15369 17-112, chain 3 of 2): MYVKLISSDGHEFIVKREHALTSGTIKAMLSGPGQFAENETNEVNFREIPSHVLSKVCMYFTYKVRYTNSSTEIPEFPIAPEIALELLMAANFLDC

[2] = target: T1, SOCS2-Elo B/C + F3; assay: ITC; remark: listed apart in the source
[3] = target: F3 peptide; assay: NMR titration

Binder	Kd [1] [nM]	stoichiometry N [2]	binding result [3]
Cullin5 N-terminal domain (Cul5^1-384) (domain or fragment) MATSNLLKNKGSLQFEDKWDFMRPIVLKLLRQESVTKQQWFDLFSDVHAVCLWDDKGPAKIHQALKEDILEFIKQAQARVLSHQDDTALLKAYIVEWRKFFTQCDILPKPFCQLEITLMGKQGSNKKSNVEDSIVRKLMLDTWNESIFSNIKNRLQDSAMKLVHAERLGEAFDSQLVIGVRESYVNLCSNPEDKLQIYRDNFEKAYLDSTERFYRTQAPSYLQQNGVQNYMKYADAKLKEEEKRALRYLETRRECNSVEALMECCVNALVTSFKETILAECQGMIKRNETEKLHLMFSLMDKVPNGIEPMLKDLEEHIISAGLADMVAAAETITTDSEKYVEQLLTLFNRFSKLVKEAFQDDPRFLTARDKAYKAVVNDATIFK	41	0.81	
SOCS2-SH2^32–159 (domain or fragment, human, UniProt O14508 32-159, looked up) QAARLAKALRELGQTGWYWGSMTVNEAKEKLKEAPEGTFLIRDSSHSDYLLTISVKTSAGPTNLRIEYQDGKFRLDSIICVKSKLKQFDSVVHLIDYYVQMCKDKRTGPEAPRNGTVHLYLTKPLYTS			binds
STASTVQ[pY]STVVHSG [gp130 pY757 peptide]		0.738 and 0.632	
